{"source": "paper PMC7495503", "binders": {"B1": {"name": "Pgi8 crRNA (SP2), Cy5 body-labeled (structured_RNA)", "RNA": "GCAAGUGGAAUUAAUCUUUUUUCUUCUUUACGUUGGAUCUUCCCUCUAUUCGAAGGGUACACACAAC"}}, "molecular_target": "T1, Pgi8Cas13b (Porphyromonas gingivalis ATCC 33277, UniProt B2RL97 1-1119)", "T1 sequence": "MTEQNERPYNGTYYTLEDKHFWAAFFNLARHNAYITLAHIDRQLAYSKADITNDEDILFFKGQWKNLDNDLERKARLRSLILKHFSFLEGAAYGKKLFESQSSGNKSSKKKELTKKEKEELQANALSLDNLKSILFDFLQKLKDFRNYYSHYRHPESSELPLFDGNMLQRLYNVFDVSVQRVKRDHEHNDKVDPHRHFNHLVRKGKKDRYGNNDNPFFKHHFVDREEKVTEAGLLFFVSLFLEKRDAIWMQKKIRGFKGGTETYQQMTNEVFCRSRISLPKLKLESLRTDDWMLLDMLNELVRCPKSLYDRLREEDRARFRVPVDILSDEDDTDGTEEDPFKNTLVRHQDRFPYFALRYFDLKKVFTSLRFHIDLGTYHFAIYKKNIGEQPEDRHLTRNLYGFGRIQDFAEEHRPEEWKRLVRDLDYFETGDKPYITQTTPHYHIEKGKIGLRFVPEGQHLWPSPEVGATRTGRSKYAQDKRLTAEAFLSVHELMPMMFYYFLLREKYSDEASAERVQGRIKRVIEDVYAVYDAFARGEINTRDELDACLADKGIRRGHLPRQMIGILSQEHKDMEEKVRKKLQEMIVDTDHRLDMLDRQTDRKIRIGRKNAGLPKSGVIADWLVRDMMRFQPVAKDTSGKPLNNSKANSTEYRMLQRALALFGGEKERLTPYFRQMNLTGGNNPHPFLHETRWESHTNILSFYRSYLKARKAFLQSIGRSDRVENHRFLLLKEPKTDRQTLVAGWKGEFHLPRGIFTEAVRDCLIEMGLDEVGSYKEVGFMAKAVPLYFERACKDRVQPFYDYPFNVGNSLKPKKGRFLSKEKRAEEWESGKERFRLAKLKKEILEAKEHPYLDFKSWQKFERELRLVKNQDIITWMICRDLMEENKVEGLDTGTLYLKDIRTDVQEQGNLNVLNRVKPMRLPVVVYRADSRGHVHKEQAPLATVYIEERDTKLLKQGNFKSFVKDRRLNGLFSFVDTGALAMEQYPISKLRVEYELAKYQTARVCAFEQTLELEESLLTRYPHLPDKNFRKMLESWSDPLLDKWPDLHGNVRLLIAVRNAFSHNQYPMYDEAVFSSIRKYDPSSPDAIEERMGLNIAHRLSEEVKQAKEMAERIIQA", "assay": "EMSA", "data": [{"binder": "B1", "values": [{"measurement": "Kd", "value": 18, "unit": "nM"}]}]}
